Values belong to the binder of their own block, whether it stands above or below them.
How the values were obtained:
TGFβ1 [1] = target: T1, TGFβ1 (human, UniProt P01137); test: competition, SPR vs TGFβ-RIII
TGFβ3 [2] = target: T2, TGFβ3 (human, UniProt P10600); test: competition, SPR vs TGFβ-RII
T2 chain: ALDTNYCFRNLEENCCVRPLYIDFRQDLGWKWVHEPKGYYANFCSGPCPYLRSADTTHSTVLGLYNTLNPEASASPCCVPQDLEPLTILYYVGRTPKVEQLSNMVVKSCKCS

TGFβ3 [3] = target: T2, TGFβ3; test: competition, SPR vs TGFβ-RIII
TGFβ1 [4] = target: T1, TGFβ1; test: competition, SPR vs TGFβ-RII
TGFβ2 [5] = target: T3, TGFβ2 (human, UniProt P61812); test: competition, SPR vs TGFβ-RIII
T3 chain: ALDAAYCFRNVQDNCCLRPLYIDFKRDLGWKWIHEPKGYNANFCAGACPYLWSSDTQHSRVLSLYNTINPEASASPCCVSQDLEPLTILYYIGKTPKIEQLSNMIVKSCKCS

TGFβ2 [6] = target: T3, TGFβ2; test: competition, SPR vs TGFβ-RII
TGFβ1 [7] = target: T1, TGFβ1; test: SPR
TGFβ3 [8] = target: T2, TGFβ3; test: SPR
TGFβ2 [9] = target: T3, TGFβ2; test: SPR

EC50 (TGFβ1 [1]): 1.2 nM
EC50 (TGFβ3 [2]): 34 nM
EC50 (TGFβ3 [3]): 31 nM
EC50 (TGFβ1 [4]): 1.7 nM
EC50 (TGFβ2 [5]): 1.6 nM
EC50 (TGFβ2 [6]): 1.8 nM
B1: XPA.42.089 (antibody, V domains shown)
VH: QVQLVQSGAEVKKPGSSVKVSCKASGGTFSSYAISWVRQAPGQGLEWMGGIIPIFGTANYAQKFQGRVTITADESTSTAYMELSSLRSEDTAVYYCARGLWEVRALPSVYWGQGTLVTVSS
VL: SYELTQPPSVSVAPGQTARITCGANDIGSKSVHWYQQKAGQAPVLVVSEDIIRPSGIPERISGSNSGNTATLTISRVEAGDEADYYCQVWDRDSDQYVFGTGTKVTVLG

EC50 (TGFβ1 [1]): 0.6 nM
EC50 (TGFβ3 [2]): 1.4 nM
EC50 (TGFβ3 [3]): 1.9 nM
EC50 (TGFβ1 [4]): 2 nM
EC50 (TGFβ2 [5]): 2.4 nM
EC50 (TGFβ2 [6]): 2.2 nM
B2: XPA.42.068 (antibody, V domains shown)
VH: not shown
VL: SSELTQPPSVSVAPGEKARITCGGNNIGRKSVHWYQQRPGQAPVVVLYYDRVRPSGIPERFSGSNSGNTATLTITRVEAGDEADYFCQVWDNTSEHVVFGGGTQLTVLG

EC50 (TGFβ1 [1]): 1.2 nM
EC50 (TGFβ3 [2]): 1.2 nM
EC50 (TGFβ3 [3]): 1.1 nM
EC50 (TGFβ1 [4]): 2.3 nM
EC50 (TGFβ2 [5]): 2.1 nM
EC50 (TGFβ2 [6]): 1.7 nM
B3: XPA.42.681 (antibody, V domains shown)
VH: not shown
VL: SYVLTQPPSVSVAPGKTARITCGGNNIGFRSVHWYQQKSGQAPVLVIYFDRARPSGIPERFSASNSENTATLTIRRVEAGDEADYYCQVWDSDSDDLVFGGGTQLTVLG

binding result (TGFβ1 [7]): no binding
binding result (TGFβ3 [8]): no binding
binding result (TGFβ2 [9]): no binding
B4: TGFβ-RI (protein)
chain: LQCFCHLCTKDNFTCVTDGLCFVSVTETTDKVIHNSMCIAEIDLIPRDRPFVCAPSSKTGSVTTTYCCNQDHCNKIELPTTVKSSPGLGPVEL
